Test results: patent US20240270826A1 (NATIONAL RESEARCH COUNCIL OF CANADA, published 2024)

B1: NRCoV2-12 VHH-Fc (Fc fusion)
chain: EVQLQQSGGGLVQAGGSLRLSCAASGRTFRNYVMGWFRQAPQAPGKDHEFVAAISWGGTEIYYADSVKGRFTISRDNAKNTVYLQMNSLKPEDTAVYYCAADRGLSYYYTRTTEYNYWGQGTQVTVSS
notes: bivalent VHH-Fc
B2: NRCoV2-18 VHH-Fc (Fc fusion)
chain: EVQLVESGGGLVQAGGSLRLSCVASGITISGYNMAWWRQTRGKQTERVAFINSGGSTTYSDSVKGRFTISRDNGKNTAYLQMNSLNAEDTADYFCSLHTSHDYWGQGTQVTVSS
notes: bivalent VHH-Fc
B3: NRCoV2-20 VHH-Fc (Fc fusion)
chain: EVQLQQSGGGLVQPGGSLRLSCAASGRTFSNYVVGWFRQAPQAPGKDHEFVAVISGSDTETYYADSVKGRFTISRDNAKNTVYLQMNSLKPEDTAVYYCAADRGMSYYYTRATEYYYWGQGTQVTVSS
notes: bivalent VHH-Fc
B4: NRCoV2-MRed04 VHH-Fc (Fc fusion)
chain: EVQLVESGGGLVQPGRSLRLSCAASGNSFSISTMGWFRQAPGKERELVASIWSDTTTSYADSVKGRFTISTDNTRTKVYLQMSSLNPEDTAVYYCAADRGFVVRGQYDYWGQGTQVTVSS
notes: bivalent VHH-Fc
B5: NRCoV2-05 VHH-Fc (Fc fusion)
chain: EVKLVQSGGGLVQPGGSLRLSCAASGFIFSNYAMNWVRQAPGKGLEWVSGINSGGGDTRYADSVKGRFTVSRDNAKNTLYLQMNSLKPEDTGVYYCSKGPVSSYYGSGYDYRGQGTQVTVSS
notes: bivalent VHH-Fc
B6: NRCoV2-14 VHH-Fc (Fc fusion)
chain: EVQLVSSGGGLVQAGGSLRLSCEASGTTFSHYAVGWYRQAPGKQREWVASISVFGSTTYGGSVAGRFTISRDNDKNTVDLQMNSLKPEDTAVYYCHAVNADIGGDYWGQGTQVTVSS
notes: bivalent VHH-Fc
B7: NRCoV2-MRed04 VHH-Fc (Fc fusion)
chain: B4 chain
notes: bivalent VHH-Fc
B8: NRCoV2-11 VHH-Fc (Fc fusion)
chain: EVQLVSSGGGLVQPGGSLRLSCAASGSSLDSYSVSWFRQAPGKEREWISFISRYYSSTYYTDSVKGRFTTSRDGDQKTVHLQMNSLKPEDTAVYYCAARSRDFSSPFSATDTYTSWGQGTQVTVSS
notes: bivalent VHH-Fc
B9: NRCoV2-1d VHH (VHH)
VHH: EVQLVESGGGSVQPGGSLRLSCAASGSTLDYYAIGWFRQAPGKEREWVSSVSSSDGNTLYADSVKGRFTISRDNAKNTVYLQMNSLKAEDTAVYVCAADYSMRPFAVGRWHRDYEYWGQGTQVTVSS
B10: NRCoV2-03 VHH (VHH)
VHH: EVQLVSSGGGLVQAGGSLRLSCTASGITFSYYAMGWYRQAPGQPRELVASMSNMDSTIYADSVKGRFTISRDNAKTTIYLQMNNLKPEDTAVYFCNIYGPTYSTRRNEYWGQGTQVTVSS
B11: NRCoV2-04 VHH (VHH)
VHH: AVQLVDSGGGLVQPGGSLRLSCAASGSPFSNVVMAWYRQAPGKQRERVAFISGGGIADYIMSVKGRFTISRDNAKNTVYLQMNSLKPEDTAVYYCWSSYESTWGQGTQVTVSS
B12: NRCoV2-05 VHH (VHH)
VHH: B5 chain
B13: NRCoV2-06 VHH (VHH)
VHH: EVQLVQSGGGLVQAGESLRLSCAASVSTFSSYAMGWYRQAPGKQRELVASIGFVGATYYIDSVKGRFTISRDNAKKTAYLQMNDLKPDDTAVYYCNARHYGGSEYWGQGTQVTVSS
B14: NRCoV2-10 VHH (VHH)
VHH: QLQLQESGGGLVQPGGSLTLSCAASGNTFSRSNMHWYRQAPGAQREWVAAISSRGISTYAYSAKGRFTISRDNAKNTVSLQMNSLKPEDTAVYYCYAADDLGDYWGQGTQVTVSS
B15: NRCoV2-11 VHH (VHH)
VHH: B8 chain
B16: NRCoV2-SR13 VHH (VHH)
VHH: EVQLVESGGGLVTTGGSLRLSCATSGSRFGSKHMAWYRQAPGKQRDLVAAISSGGSTHYGSSVKGRFTISRDNAKSTVYLQMNSLNPEDTAVFYCNMGGWDYRSNTYIPGSRSDYWGQGTQVTVSS
B17: NRCoV2-14 VHH (VHH)
VHH: B6 chain
B18: NRCoV2-15 VHH (VHH)
VHH: EVQLVSSGGGLVEAGGSLRLSCIASGSTSGRNTMGWFRQAPGKQREWVAIVSTSGATNYAGSVKGRFTLSRDNAKNAVYLQMNNLKPEDTAVYYCYAAYGGGGDYWGQGTQVTVSS
B19: NRCoV2-SR16 VHH (VHH)
VHH: QVQLVQSAGGLVQAGGSLRLSCVVSGTTFSRYHMGWHRQAPGKQRDFVAGISTSGAVTYADSAKGRFTISRDNAKNTVYLEMNSLKLEDTALYYCNTGGWDYRSSTFIMGLNWGQGTQVTVSS
B20: NRCoV2-17 VHH (VHH)
VHH: EVQLQQSGGGLVQTGGSLRLSCAAAGSPFSQLAMSWYRQISGKERAWVASISPTGNRSYSKIAKGRFTISRDNAKNTVTLQMTSLKPEDTAAYICQAANVNGGDYWGQGTQVTVSS
B21: NRCoV2-18 VHH (VHH)
VHH: B2 chain
B22: NRCoV2-20 VHH (VHH)
VHH: B3 chain
B23: NRCoV2-SR01 VHH (VHH)
VHH: EVQLVQSGGGSVQAGGSLRLSCVASGFTFDNYAIGWFRQAPGKEREGVSCISGNGGVTIYADSVKGRFTISRDNAKNLVYLQMNSLKPEDTAVYYCAATGIRSTWSVYGCSRLAGPYDYWGQGTQVTVSS
B24: NRCoV2-SR02 VHH (VHH)
VHH: EVQLVDSGGGLVQAGGSLRLSCTASEFTLNYYSIGWFRQSPGKEREGVSCIRYSGGGIDYADSVKGRFTISRDNAKNTVYLTMNSLKPEDTAVYYCAADRLYSRACPTAGGRNYWGQGTQVTVSS
B25: NRCoV2-SR04 VHH (VHH)
VHH: QVQLVESGGGLVQAGGSLRLSCAASGRTFSSHTVGWYRQAPGKQRDLVAAISMGGNTNYADYADSVKGRFTISRDNAKNTLYLQMNSLKPEDTAVYYCNTAALVGNRLLPMATITWGQGTQVTVSS
B26: NRCoV2-S2G3 VHH (VHH)
VHH: QVQLVQSGGGSVQAGGSLRLSCAASGSTFGIFLMGWRRQAPGKQRELVAHITSGGATNYADSVKGRFTISRDNAKNTVYLQMNSLEPEDTAVYYCYTTKRDDASVYWGQGTQVTVSS
B27: NRCoV2-S2G4 VHH (VHH)
VHH: QVQLVQSGGGLVQAGGSLTLSCAPSGSTFSGYATNWYRQAPGKQRELVATISSDGDKNYADSVKGRFTISRDNAKNTVYLQMNSLKPEDTAVYYCNKHWWTGDWWGQGTQVTVSS
B28: NRCoV2-S2F3 VHH (VHH)
VHH: EVQLVQSGGGLVQAGGSLRLSCATSVRILSVPAMGWYRQAPGKEREMVAVITSGGSTNYADSVKGRFTISRDNAKNTVYLQMNSLKLEDTAVYQCNLRDILSQPFWGQGTQVTVSS

Target: SARS-CoV-2 spike protein S on live virus, Wuhan (strain SARS-CoV-2/Canada/VIDO-01/2020) (SARS-CoV-2 (Wuhan), UniProt P0DTC2 14-1273)
Test: cell-based or functional assay

Row | Binder | LVNA IC50
1 | B1 | 2.82 nM
2 | B2 | 6.4 nM
3 | B3 | 11.2 nM
4 | B4 | 9.61 nM
5 | B5 | 0.0008 nM
6 | B6 | 3.1 nM

Target: T1, SARS-CoV-2 S on CHO-S cells (SARS-CoV-2, UniProt P0DTC2 14-1273)
T1 construct: whole, on cells
Test: flow cytometry, CHO-S cells

Row | Binder | Bmax | EC50
7 | B7 | 14900 | 4.2 nM
8 | B8 | 18200 | 4.3 nM

Target: T2, SARS-CoV-2 S2 (aa686-1208) (Wuhan) (SARS-CoV-2 Wuhan, UniProt P0DTC2 686-1208)
T2 construct: NRC; FLAG, 6xHis tags
Test: ELISA

Row | Binder | binding result
9 | B7 | no binding (tested: 13 nM)
10 | B8 | no binding (tested: 13 nM)

Target: SARS-CoV-2 S1-NTD (aa16-305) (SARS-CoV-2 Wuhan, UniProt P0DTC2 16-305)
Test: ELISA

Row | Binder | binding result
11 | B7 | no binding (tested: 13 nM)
12 | B8 | no binding (tested: 13 nM)

Target: Human SARS-CoV-2_Wuhan S (SmT1) (SARS-CoV-2 (Wuhan), UniProt P0DTC2 14-1208)
Test: flow cytometry SVNA, VHH-Fc vs biotin-S binding to Vero E6 ACE2

Row | Binder | IC50 | IC99 | Imax %
13 | B1 | 7.3 nM | 840 nM | 90%
14 | B2 | 12 nM | 680 nM | 90%
15 | B3 | 8.7 nM | 70.3 nM | 66%
16 | B4 | 4.6 nM | 262 nM | 73%
17 | B5 | 6.7 nM | 37 nM | 95%
18 | B6 | 9.9 nM | 160 nM | 83%

Target: Human SARS-CoV-2_Wuhan S (SmT1) (SARS-CoV-2 (Wuhan), UniProt P0DTC2 14-1208)
Test: tandem SPR, immobilized S, orientation 1: VHH alone

Row | Binder | End 1st inj (RU)
19 | B9 | 26.3 RU
20 | B10 | 18.1 RU
21 | B11 | 41.4 RU
22 | B12 | 36.9 RU
23 | B13 | 38.5 RU
24 | B14 | 9.6 RU
25 | B15 | 21.8 RU
26 | B16 | 36.9 RU
27 | B17 | 26.9 RU
28 | B18 | 10.1 RU
29 | B19 | 37.4 RU
30 | B20 | 16.7 RU
31 | B21 | 12.6 RU
32 | B22 | 27.1 RU
33 | B23 | 39.4 RU
34 | B24 | 10.3 RU
35 | B25 | 10.9 RU
36 | B26 | 59 RU
37 | B27 | 21.3 RU
38 | B28 | 50 RU
